Data taken from publication PMC2930068 (Journal of molecular biology, 2010).
“And” between values parts separate entries of the source, which are not always exact repeats. Equal entries are not always repeated.

B6: phosphorylated-Tyr701 STAT1 (1-712), N-terminal 6-histidine tag (natural protein, UniProt P42224-2 1-712, looked up)
chain: MSQWYELQQLDSKFLEQVHQLYDDSFPMEIRQYLAQWLEKQDWEHAANDVSFATIRFHDLLSQLDDQYSRFSLENNFLLQHNIRKSKRNLQDNFQEDPIQMSMIIYSCLKEERKILENAQRFNQAQSGNIQSTVMLDKQKELDSKVRNVKDKVMCIEHEIKSLEDLQDEYDFKCKTLQNREHETNGVAKSDQKQEQLLLKKMYLMLDNKRKEVVHKIIELLNVTELTQNALINDELVEWKRRQQSACIGGPPNACLDQLQNWFTIVAESLQQVRQQLKKLEELEQKYTYEHDPITKNKQVLWDRTFSLFQQLIQSSFVVERQPCMPTHPQRPLVLKTGVQFTVKLRLLVKLQELNYNLKVKVLFDKDVNERNTVKGFRKFNILGTHTKVMNMEESTNGSLAAEFRHLQLKEQKNAGTRTNEGPLIVTEELHSLSFETQLCQPGLVIDLETTSLPVVVISNVSQLPSGWASILWYNMLVAEPRNLSFFLTPPCARWAQLSEVLSWQFSSVTKRGLNVDQLNMLGEKLLGPNASPDGLIPWTRFCKENINDKNFPFWLWIESILELIKKHLLPLWNDGCIMGFISKERERALLKDQQPGTFLLRFSESSREGAITFTWVERSQNGGEPDFHAVEPYTKKELSAVTFPDIIRNYKVMAAENIPENPLKYLYPNIDKDHAFGKYYSRPKEAPEPMELDGPKGTGYIKTELISVSEV
modifications: phosphotyrosine at 701; alkylated with N-ethyl-maleimide

How the values were obtained:
[1] = biological target: T1, pSTAT1 (1-712) F77A / L78A (UniProt P42224-2 1-712, F77A | L78A, phosphotyrosine at 701); experiment: SPR
T1 sequence (looked up): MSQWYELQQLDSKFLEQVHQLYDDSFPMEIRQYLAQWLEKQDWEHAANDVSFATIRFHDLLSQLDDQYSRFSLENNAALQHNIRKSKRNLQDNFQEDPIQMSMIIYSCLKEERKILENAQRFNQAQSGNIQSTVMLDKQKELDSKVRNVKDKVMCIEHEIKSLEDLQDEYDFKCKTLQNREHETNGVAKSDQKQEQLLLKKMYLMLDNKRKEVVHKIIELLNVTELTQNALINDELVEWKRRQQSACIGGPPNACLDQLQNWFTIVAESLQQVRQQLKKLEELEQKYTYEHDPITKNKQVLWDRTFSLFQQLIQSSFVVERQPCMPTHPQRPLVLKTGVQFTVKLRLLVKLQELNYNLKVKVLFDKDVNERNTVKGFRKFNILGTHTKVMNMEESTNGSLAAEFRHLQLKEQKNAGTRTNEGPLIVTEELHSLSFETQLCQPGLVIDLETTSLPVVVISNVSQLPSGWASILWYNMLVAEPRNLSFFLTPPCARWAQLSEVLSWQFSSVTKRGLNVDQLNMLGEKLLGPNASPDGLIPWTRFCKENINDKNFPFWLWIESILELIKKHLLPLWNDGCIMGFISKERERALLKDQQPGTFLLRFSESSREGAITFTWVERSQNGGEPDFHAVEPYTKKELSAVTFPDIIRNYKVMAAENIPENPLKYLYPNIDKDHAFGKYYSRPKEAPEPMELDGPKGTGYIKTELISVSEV

[2] = biological target: B6; experiment: SPR
[3] = biological target: the molecule itself; experiment: AUC

B1: GST-importin α5 (res. 1-538) (natural protein)
chain: not shown
Q: What does the source list for B1?
A: Kd [1]: 112 ± 22 nM; koff [1]: 0.0113 s⁻¹; kon [1]: 98100 M⁻¹ s⁻¹

B2: GST-ΔIBB-importin α5 (res. 79-538) (domain or fragment)
chain: not shown
Q: With B2 as the binder, how does the Kd [2] read?
A: Its Kd is 153 ± 16 nM.

Q: And the koff [2]?
A: Its koff is 0.0218 s⁻¹.

Q: What about the kon [2] of the same binder?
A: Its kon is 144000 M⁻¹ s⁻¹.

B3: GST-importin α5 (res. 1-512) (domain or fragment)
chain: not shown
Q: How did the Kd [2] turn out when B3 was run?
A: The Kd was 166 ± 17 nM.

Q: And the koff [2]?
A: Its koff is 0.0204 s⁻¹.

Q: What about the kon [2] of the same binder?
A: The kon was 124000 M⁻¹ s⁻¹.

B4: GST-importin α5 (res. 1-504) (domain or fragment)
chain: not shown
Q: Which results are given for B4?
A: Kd [2]: 247 ± 27 nM; koff [2]: 0.0243 s⁻¹; kon [2]: 98300 M⁻¹ s⁻¹

B5: unphosphorylated STAT1 (1-712), N-terminal 6-histidine tag (natural protein, UniProt P42224-2 1-712, looked up)
chain: MSQWYELQQLDSKFLEQVHQLYDDSFPMEIRQYLAQWLEKQDWEHAANDVSFATIRFHDLLSQLDDQYSRFSLENNFLLQHNIRKSKRNLQDNFQEDPIQMSMIIYSCLKEERKILENAQRFNQAQSGNIQSTVMLDKQKELDSKVRNVKDKVMCIEHEIKSLEDLQDEYDFKCKTLQNREHETNGVAKSDQKQEQLLLKKMYLMLDNKRKEVVHKIIELLNVTELTQNALINDELVEWKRRQQSACIGGPPNACLDQLQNWFTIVAESLQQVRQQLKKLEELEQKYTYEHDPITKNKQVLWDRTFSLFQQLIQSSFVVERQPCMPTHPQRPLVLKTGVQFTVKLRLLVKLQELNYNLKVKVLFDKDVNERNTVKGFRKFNILGTHTKVMNMEESTNGSLAAEFRHLQLKEQKNAGTRTNEGPLIVTEELHSLSFETQLCQPGLVIDLETTSLPVVVISNVSQLPSGWASILWYNMLVAEPRNLSFFLTPPCARWAQLSEVLSWQFSSVTKRGLNVDQLNMLGEKLLGPNASPDGLIPWTRFCKENINDKNFPFWLWIESILELIKKHLLPLWNDGCIMGFISKERERALLKDQQPGTFLLRFSESSREGAITFTWVERSQNGGEPDFHAVEPYTKKELSAVTFPDIIRNYKVMAAENIPENPLKYLYPNIDKDHAFGKYYSRPKEAPEPMELDGPKGTGYIKTELISVSEV
Q: How did the “stoichiometry N” value [3] turn out when B5 was run?
A: Its value is 2.

Q: Which “stoichiometry N” value [3] does the source give for B6 here?
A: Its value is 2 and ~4.
